The values below come from patent publication US20110117113A1, “IMMUNOGLOBULIN SINGLE VARIABLE DOMAIN DIRECTED AGAINST HUMAN CXCR4 AND OTHER CELL ASSOCIATED PROTEINS AND METHODS TO GENERATE THEM” (priority 2009, published 2011).

One assay addresses T1, wildtype human CXCR4 (Homo sapiens, UniProt P61073).
T1 construct: expressed in transfected cells; host or cells: Hek293T, transient, pcDNA3.1
Nature of the assay: Footprint assay, flow cytometry binding to wildtype human CXCR4 on Hek293T cells. Particulars: Myc-tag detection, 10 nM and 100 nM Nanobody, average n = 3, wild type used for normalization. An excerpt:
(§1) Based on the data from example 1.8, we introduced 3 single point-mutations in ECL2 of CXCR4 that allowed to discriminate between 238D2 and 238D4-like epitopes: V196E (specifically disturbing D2 binding)-SEQ ID NO: 20, D187V (specifically disturbing D4 binding)-SEQ ID NO: 21, F189V (disturbing binding of both D2 and D4)-SEQ ID NO: 19. […] For the epitope mapping, transient transfections of the three CXCR4 mutants and wildtype human CXCR4 in the pcDNA3.1 vector were done in Hek293T cells, after which Nanobody binding of different families was assessed by flow cytometry using detection of the Myc-tag, followed by secondary anti-mouse PE. Two concentrations of Nanobody were tested, 10 nM and 100 nM, and experiment was repeated with essentially the same results. Binding of the Nanobodies to HEK293T hCXCR4 cells was used for normalization using the following formulas:
(§2) Percentage of binding to the mutant receptors was calculated for each Nanobody concentration, and a position was considered as critical when less than 25% residual binding (average of n=3) was observed (Table C-5). […] Nanobodies could be grouped according to their different binding patterns, not only in “238D2-like” or “epitope A binders” and “238D4-like” or “epitope B binders” but also into other new groups.
Background: A flow cytometer gives signals particle by particle.

Another assay has as its target T2, CXCR4 (N119A) (Homo sapiens, UniProt P61073, N119A).
T2 construct: expressed in transfected cells; host or cells: HEK293T, transient; membranes in A4, whole cells in A5
Briefly: Competition binding with [125I]-CXCL12 on constitutively active CXCR4 mutant N119A. The settings on record: competition with [125I]-CXCL12 (40 pM). As to the method: Competition binding assay—Periplasmic fractions were screened in a competition binding assay using membranes from HEK293T cells transiently expressing CXCR4. In short, periplasmic extracts (1:10) or ligands were pre-incubated with membranes in binding buffer (50 mM HEPES (pH 7.4), 1 mM CaCl2, 5 mM MgCl2, 100 mM NaCl, 0.5% bovine serum albumin) supplemented with 0.5% BSA for 1 h at 22° C. before the addition of [^125I]-CXCL12 (40 pM) or [^125I]-238D2 (3 nM) or [^125I]-238D4 (3 nM) for additional 2 h at 22° C. […] Membranes were then harvested over polyethylenimine (0.5%)-treated Whatman GF/C filter plates and washed three times with ice cold binding buffer containing 500 mM NaCl. Plates were counted by liquid scintillation.
CXCR4—specific Nanobodies behave as neutral antagonists or inverse agonists on constitutively active mutants of CXCR4—The CXCR4—specific monovalent Nanobodies 238D2 and 238D4 as well as their bivalent fusion products L3 and L8 were investigated on the constitutively active CXCR4 mutant N119A (equivalent to N3.35A in the Ballestros-Weinstein numbering of class A GPCRs). […] Despite of the large number of CAMs for other class A GPCRs and further efforts to generate additional CAMs for CXCR4 (Berchiche et al., 2007), the N119 mutants of CXCR4 remain the only known CAMs for this receptor. […] Methods: Preparation of membranes and competition binding experiments with [125I]-CXCL12 (40 pM) were performed as described before for wild type CXCR4 (vide supra).

The next assay concerns the target T3, CXCR4 mutant 1 (F189V) (Homo sapiens, UniProt P61073, F189V).
T3 construct: expressed in transfected cells; host or cells: Hek293T, transient, pcDNA3.1
Briefly: Footprint assay, flow cytometry binding to CXCR4 F189V on Hek293T cells. Particulars: Myc-tag detection, 10 nM and 100 nM Nanobody, average n = 3, relative to hCXCR4.
Source text: as §1, §2

The target of assay [1] is all CXCR4 library clones containing a mutation at S178. Nature of the assay: immunofluorescence, average over all clones with a mutation at S178.
Assay [2] addresses T4, wildtype human CXCR4 (pcDNA3.1-CXCR4, expressed in HEK293T) (human, UniProt P61073 1-352).
T4 construct: whole, on cells; also called hCXCR4; HEK293T CXCR4
Briefly: competition with [125I]-238D2, HEK293T-CXCR4 membranes.

“Also recorded” adds a separate entry of the source.

T2 sequence (P61073 whole entry N119A): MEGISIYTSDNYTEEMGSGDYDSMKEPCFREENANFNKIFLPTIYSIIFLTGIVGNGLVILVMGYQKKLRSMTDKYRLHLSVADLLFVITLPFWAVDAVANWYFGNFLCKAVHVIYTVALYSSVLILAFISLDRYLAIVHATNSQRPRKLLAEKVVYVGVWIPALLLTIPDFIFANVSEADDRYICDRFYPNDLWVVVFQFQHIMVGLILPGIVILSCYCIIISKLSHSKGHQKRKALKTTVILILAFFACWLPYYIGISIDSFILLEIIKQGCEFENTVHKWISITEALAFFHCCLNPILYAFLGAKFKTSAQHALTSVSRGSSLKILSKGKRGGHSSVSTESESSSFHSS
T4 sequence (P61073 whole entry): as the sequence (P61073 whole entry N119A) above, with A119N counted along it
T1 sequence (P61073 whole entry): as the sequence (P61073 whole entry N119A) above, with A119N counted along it
T3 sequence (P61073 whole entry F189V): as the sequence (P61073 whole entry N119A) above, with A119N, F189V counted along it

B1: 238D2: monovalent anti CXCR4 Nanobody, SEQ ID NO: 2 (protein)
VHH: EVQLVESGGGLVQTGGSLRLSCAASGFTFSSYAMSWVRQAPGKGLEWVSGIKSSGDSTRYAGSVKGRFTISRDNAKNMLYLQMYSLKPEDTAVYYCAKSRVSRTGLYTYDNRGQGTQVTVSS
modifications: Nanobody
Consider B1, for which the “HEK293T CXCR4 binding” value with wildtype human CXCR4 is listed as “+ (>75% binding to mutant rel. to hCXCR4)”. Besides, the “binding affinities to CXCR4 (N119A) compared to wild type (in words)” value in the assay with CXCR4 (N119A) was “somewhat less compared to the wild type receptor”. Besides, in the assay with CXCR4 (N119A) (highest nanobody test concentration 2 μM), the “binding to CXCR4 (N119A) (in words)” value is “able to bind to CXCR4 (N119A); also recorded: clearly bind to the mutant receptor”. Moreover, in the assay with CXCR4 mutant 1 (F189V), the “HEK293T F189V binding” value is “− (<=25% binding to mutant rel. to hCXCR4)”.

B2: Nanobody 238D4 (VHH)
VHH: EVQLMESGGGLVQAGGSLRLSCAASGRTFNNYAMGWFRRAPGKEREFVAAITRSGVRSGVSAIYGDSVKDRFTISRDNAKNTLYLQMNSLKPEDTAVYTCAASAIGSGALRRFEYDYSGQGTQVTVSS
In assay [1], B2 displayed an average nanobody reactivity of 23.2%. In assay [2], this molecule showed a pKi of 8.8 pKi.
